According to patent publication CN117603358A (INST MICROBIOLOGY CAS; 3SBIO GROUP; SHANXI ADVANCED …, dated 2024):

B1: L4.65单抗 (antibody, V domains shown)
VH: QITLKESGPTLVKPTQTLTLTCTFSGFSLSTSGVGVAWIRQPPGKALEWLALIYWDNDKRSSPSLNNRLTITKDTSKNQVVLTMTNMDPEDTATYYCAHFFSHYDSSNYYYGSWFDPWGQGTLVTVSS
VL: EIVLTQSPGTLSLSPGERATLSCRASQSFDSRYLGWYQQKSGQAPRLLIYGASSRATGIPDRFSGSGSGTDFTLTISRLEPEDFAVYYCQQFGDSPFTFGQGTKLEIKR
B2: CoV56单抗 (antibody, V domains shown)
VH: EVQLVESGGGVVQPGGSLRLSCAVSGFTFDDYAMHWVRQAPGKGLDWVSLISGDGSYTYYADSVKGRFTISRDSSKNSLYLQMNSLRTEDTALYYCAKAQTPTLWWLQDAFDIWGQGTMVTVSS
VL: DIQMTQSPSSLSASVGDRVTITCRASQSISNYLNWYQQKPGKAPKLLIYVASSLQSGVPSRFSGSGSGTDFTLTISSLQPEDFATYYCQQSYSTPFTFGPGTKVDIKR

Molecular target: S蛋白, SARS-CoV-2原型毒株 (SARS-CoV-2 (prototype), UniProt P0DTC2 14-1273)
Experiment: cell-based or functional assay

Row | Binder | 假病毒中和效果 IC50 [µg/mL]
1 | B1 | 0.000709
2 | B2 | 8.38
